Measured values from patent publication US10023484B2, “Use of peracetic acid/hydrogen peroxide and peroxide-reducing agents for treatment of drilling fluids, frac fluids, flowback water and disposal water” (Ecolab USA Inc., priority 2012, dated 2018).

Key:
[1] = POAA and H2O2 loss with CoMo peroxide-reducing agent (Example 20); format: physicochemical; details: 10 g CoMo
Text: (§1) Various additional inorganic metals and metal compounds were further evaluated for use as peroxide decomposition catalysts (e.g. peroxide-reducing agents) according to the methods of the invention. The metals were provided as solid catalysts to POAA solutions.

[2] = POAA and H2O2 loss with NiW peroxide-reducing agent (Example 20); format: physicochemical; details: 10 g NiW
Text: as §1

[3] = POAA and H2O2 loss with Mo peroxide-reducing agent (Example 20); format: physicochemical; details: 10 g Mo
Text: as §1

[4] = POAA and H2O2 loss with NiMo peroxide-reducing agent (Example 20); format: physicochemical; details: 10 g NiMo
Text: as §1

[5] = test system: produced water samples (planktonic bacteria); experiment: Planktonic kill study, ATP quantification assay; format: cell-based; details: PAA/H2O2 25 ppm
Procedure: Planktonic kill studies were performed as an evaluation of biocide efficiency for PAA/H2O2 and PAA/H2O2/Catalase applications. Briefly, produced water samples were used to test the kill efficiency of PAA/H2O2 at the following dosages: 25, 50, 75, 150 and 300 ppm PAA. Concentration of catalase was fixed at 1000 ppm. The contact time was set to 10 and 60 minutes. After contact time, bacterial enumeration was performed using ATP quantification assay. Bacterial enumeration was calculated at the end of the appropriate time and biocide efficacy determined by comparison to an untreated sample.

[6] = Catalase (ES2000) amount needed in treated water source, iodometric titration (Example 15); format: physicochemical
Procedure: Field of use applications were analyzed to determine the amount of a peroxide-reducing enzyme necessary to obtain desired concentrations of both peracid and hydrogen peroxide in a treated water source. EnviroSan (POAA) peracid composition was added to water to reach the targeted POAA concentrations set forth in Table 18, and the concentration of both POAA and H2O2 were confirmed by iodometric titration. Then catalase (ES2000) was added to the solution, and the sample was stored under ambient conditions. The concentration of POAA and H2O2 were monitored by the iodometric conditions.

[7] = Hydrogen peroxide reduction by catalase in 2%, 3%, 5% peracid compositions, iodometric assay (Example 13); format: physicochemical
Procedure: The concentration of peracid compositions was evaluated to determine the peroxide-reducing capability of enzymes. A catalase enzyme was evaluated for efficacy in reducing hydrogen peroxide at varying concentrations under increasingly concentrated peracid compositions. The commercially-available peracid (POAA) composition EnviroSan (Ecolab, Inc., St. Paul, Minn.) was evaluated using catalase enzymes added to 2%, 3%, and 5% peracid compositions. The catalase enzymes were added to the POAA solution and gently stirred under ambient conditions. After the addition of catalase, the stirring was discontinued, and the samples were taken for iodometric assay.

[8] = Field application of catalase (ES 2000) in pond water: room temperature, sunlight, shielded (Example 22); format: physicochemical
Procedure: A field of use application was analyzed to determine efficacy of the peroxide-reducing catalase enzyme in pond waters under ambient conditions. Catalase (ES 2000) was used in a pond water source (370000 barrel (bbl.)) to reduce/eliminate H2O2 in a POAA peracid composition. The pond water when sampled contained both POAA and H2O2. The treatments analyzed were based on established laboratory data, which at 1 ppm use level selectively eliminated H2O2 to zero within 4 hours. […] Therefore, 100 gram samples of the pond water were used to add various levels of either 1 ppm catalase (Table 33) or 2 ppm catalase (Table 34).
The samples were then stored at various conditions identified: ambient room temperature, outside under sunlight, outside shielded from sunlight. The level of hydrogen peroxide was assayed at various times (shown at 0 hours and 2 hours) to check the functionality of the catalase peroxide-reducing agent. As referred to in the Tables, the following measurements are set forth as follows: EP1 V (ml 0.05N Na2S2O3) and EP2 V (ml 0.05N Na2S2O3).

[9] = 0.5 ppm catalase, series starting at 14.6 ppm POAA, 0 hr
[10] = 0.5 ppm catalase, series starting at 14.6 ppm POAA, 1 hr
[11] = 0.5 ppm catalase, series starting at 14.6 ppm POAA, 2 hr
[12] = 0.5 ppm catalase, series starting at 14.6 ppm POAA, 3.6 hr
[13] = 0.5 ppm catalase, series starting at 31.1 ppm POAA, 0 hr
[14] = 0.5 ppm catalase, series starting at 31.1 ppm POAA, 1 hr
[15] = 0.5 ppm catalase, series starting at 31.1 ppm POAA, 2 hr
[16] = 0.5 ppm catalase, series starting at 31.1 ppm POAA, 3.6 hr
[17] = 1.0 ppm catalase, series starting at 14.8 ppm POAA, 0 hr
[18] = 1.0 ppm catalase, series starting at 14.8 ppm POAA, 1 hr
[19] = 1.0 ppm catalase, series starting at 14.8 ppm POAA, 2 hr
[20] = 1.0 ppm catalase, series starting at 14.8 ppm POAA, 3.6 hr
[21] = 1.0 ppm catalase, series starting at 30.1 ppm POAA, 0 hr
[22] = 1.0 ppm catalase, series starting at 30.1 ppm POAA, 1 hr
[23] = 1.0 ppm catalase, series starting at 30.1 ppm POAA, 2 hr
[24] = 1.0 ppm catalase, series starting at 30.1 ppm POAA, 3.6 hr
[25] = 2% POAA, 1500 ppm Catalase, 0 min.
[26] = 2% POAA, 1500 ppm Catalase, 6.5 min.
[27] = 3% POAA, 1500 ppm Catalase, 0 min.
[28] = 3% POAA, 1500 ppm Catalase, 6.5 min.
[29] = 3% POAA, 1500 ppm Catalase, 10 min.
[30] = 3% POAA, 1500 ppm Catalase, 15 min.
[31] = 3% POAA, 2500 ppm Catalase, 0 min.
[32] = 3% POAA, 2500 ppm Catalase, 6.5 min.
[33] = 3% POAA, 2500 ppm Catalase, 10 min.
[34] = 3% POAA, 2500 ppm Catalase, 15 min.
[35] = 5% POAA, 1500 ppm Catalase, 0 min.
[36] = 5% POAA, 1500 ppm Catalase, 6.5 min.
[37] = 1 ppm catalase, Ambient Room, Time 0.00 hr
[38] = 1 ppm catalase, Ambient Room, Time 2.00 hr
[39] = 1 ppm catalase, Outside shield from the sunlight, Time 0.00 hr
[40] = 1 ppm catalase, Outside shield from the sunlight, Time 2.00 hr
[41] = 1 ppm catalase, Outside under the sunlight, Time 0.00 hr
[42] = 1 ppm catalase, Outside under the sunlight, Time 2.00 hr
[43] = 2 ppm catalase, Ambient Room, Time 0.00 hr
[44] = 2 ppm catalase, Ambient Room, Time 2.00 hr
[45] = 2 ppm catalase, Outside shield from the sunlight, Time 0.00 hr
[46] = 2 ppm catalase, Outside shield from the sunlight, Time 2.00 hr
[47] = 2 ppm catalase, Outside under the sunlight, Time 0.00 hr
[48] = 2 ppm catalase, Outside under the sunlight, Time 2.00 hr

OO [H2O2]
H2O2 Concentration ([1]; Time 0): 1615 | H2O2 Concentration ([1]; Time 15): 1343 | H2O2 Concentration ([1]; Time 30): 1156 | H2O2 Concentration ([1]; Time 45): 994.5 | H2O2 Concentration ([1]; Time 60): 841.5 | H2O2 Concentration ([2]; Time 0): 1615 | H2O2 Concentration ([2]; Time 15): 1581 | H2O2 Concentration ([2]; Time 30): 1598 | H2O2 Concentration ([2]; Time 45): 1615 | H2O2 Concentration ([2]; Time 60): 1615 | H2O2 Concentration ([3]; Time 0): 1615 | H2O2 Concentration ([3]; Time 15): 1334.5 | H2O2 Concentration ([3]; Time 30): 1181.5 | H2O2 Concentration ([3]; Time 45): 986 | H2O2 Concentration ([3]; Time 60): 841.5 | H2O2 Concentration ([4]; Time 0): 1615 | H2O2 Concentration ([4]; Time 15): 1581 | H2O2 Concentration ([4]; Time 30): 1555.5 | H2O2 Concentration ([4]; Time 45): 1530 | H2O2 Concentration ([4]; Time 60): 1496

Catalase
increase of biocide efficiency by addition of 1000 ppm catalase ([5]; after 10 minutes): 48% | increase of biocide efficiency by addition of 1000 ppm catalase ([5]; after 60 minutes): 23% | H2O2 (ppm) [6, 9]: 12.0 ppm | POAA (ppm) [6, 9]: 14.6 ppm | H2O2 (ppm) [6, 10]: 7.5 ppm | POAA (ppm) [6, 10]: 15.0 ppm | H2O2 (ppm) [6, 11]: 6.5 ppm | POAA (ppm) [6, 11]: 14.3 ppm | H2O2 (ppm) [6, 12]: 1.8 ppm | POAA (ppm) [6, 12]: 14.2 ppm | H2O2 (ppm) [6, 13]: 22.8 ppm | POAA (ppm) [6, 13]: 31.1 ppm | H2O2 (ppm) [6, 14]: 12.2 ppm | POAA (ppm) [6, 14]: 32.0 ppm | H2O2 (ppm) [6, 15]: 7.8 ppm | POAA (ppm) [6, 15]: 29.2 ppm | H2O2 (ppm) [6, 16]: 3.4 ppm | POAA (ppm) [6, 16]: 30.6 ppm | H2O2 (ppm) [6, 17]: 12.6 ppm | POAA (ppm) [6, 17]: 14.8 ppm | H2O2 (ppm) [6, 18]: 3.7 ppm | POAA (ppm) [6, 18]: 14.6 ppm | H2O2 (ppm) [6, 19]: 1.1 ppm | POAA (ppm) [6, 19]: 14.2 ppm | H2O2 (ppm) [6, 20]: 0.4 ppm | POAA (ppm) [6, 20]: 15.9 ppm | H2O2 (ppm) [6, 21]: 23.3 ppm | POAA (ppm) [6, 21]: 30.1 ppm | H2O2 (ppm) [6, 22]: 7.6 ppm | POAA (ppm) [6, 22]: 31.0 ppm | H2O2 (ppm) [6, 23]: 2.3 ppm | POAA (ppm) [6, 23]: 29.6 ppm | H2O2 (ppm) [6, 24]: 0.0 ppm | POAA (ppm) [6, 24]: 29.3 ppm | H2O2 [7, 25]: 1.36% H2O2 | POAA [7, 25]: 2.0% POAA | H2O2 [7, 26]: 0.08% H2O2 | POAA [7, 26]: 2.05% POAA | H2O2 [7, 27]: 2.04% H2O2 | POAA [7, 27]: 3.0% POAA | H2O2 [7, 28]: 0.33% H2O2 | POAA [7, 28]: 2.97% POAA | H2O2 [7, 29]: 0.23% H2O2 | POAA [7, 29]: 2.83% POAA | H2O2 [7, 30]: 0.21% H2O2 | POAA [7, 30]: 2.95% POAA | H2O2 [7, 31]: 2.04% H2O2 | POAA [7, 31]: 2.0% POAA | H2O2 [7, 32]: 0.33% H2O2 | POAA [7, 32]: 2.99% POAA | H2O2 [7, 33]: 0.23% H2O2 | POAA [7, 33]: 2.95% POAA | H2O2 [7, 34]: 0.21% H2O3 | POAA [7, 34]: 2.87% POAA | H2O2 [7, 35]: 3.40% H2O2 | POAA [7, 35]: 5.0% POAA | H2O2 [7, 36]: 3.81% H2O2 | POAA [7, 36]: 4.96% POAA | H2O2 [8, 37]: 6.8 ppm | POAA [8, 37]: 5.7 ppm | H2O2 [8, 38]: 1.3 ppm | POAA [8, 38]: 5.7 ppm | H2O2 [8, 39]: 6.8 ppm | POAA [8, 39]: 5.7 ppm | H2O2 [8, 40]: 0.9 ppm | POAA [8, 40]: 5.7 ppm | H2O2 [8, 41]: 6.8 ppm | POAA [8, 41]: 5.7 ppm | H2O2 [8, 42]: 6.8 ppm | POAA [8, 42]: 4.75 ppm | H2O2 [8, 43]: 6.8 ppm | POAA [8, 43]: 5.7 ppm | H2O2 [8, 44]: 0.0 ppm | POAA [8, 44]: 5.7 ppm | H2O2 [8, 45]: 6.8 ppm | POAA [8, 45]: 5.7 ppm | H2O2 [8, 46]: 0.0 ppm | POAA [8, 46]: 5.7 ppm | H2O2 [8, 47]: 6.8 ppm | POAA [8, 47]: 5.7 ppm | H2O2 [8, 48]: 4.3 ppm | POAA [8, 48]: 4.75 ppm
